# Measurements taken from patent publication US20230399393A1, “METHODS TO EXTEND HEALTH-SPAN AND TREAT AGE-RELATED DISEASES” (National University of Singapore, priority 2020, published 2023).
# T1: IL-11Rα (Homo sapiens, UniProt Q14626)
# T1 sequence (Q14626 23-422): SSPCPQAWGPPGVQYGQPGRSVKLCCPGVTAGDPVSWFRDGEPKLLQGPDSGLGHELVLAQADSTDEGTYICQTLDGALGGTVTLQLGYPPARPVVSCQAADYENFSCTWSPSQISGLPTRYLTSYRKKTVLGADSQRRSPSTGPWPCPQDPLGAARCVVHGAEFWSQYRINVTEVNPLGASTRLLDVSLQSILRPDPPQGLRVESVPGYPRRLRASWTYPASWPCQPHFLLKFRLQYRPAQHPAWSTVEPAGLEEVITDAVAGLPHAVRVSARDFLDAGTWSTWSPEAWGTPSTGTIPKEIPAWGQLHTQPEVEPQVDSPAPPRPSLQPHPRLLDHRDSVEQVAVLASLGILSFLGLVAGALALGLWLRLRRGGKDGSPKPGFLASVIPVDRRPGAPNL
# T2: Mouse IL-11 protein in tissue lysates of C57Bl/6J mice (mouse, UniProt P47873 22-199, limits assumed)
# T2 sequence (looked up): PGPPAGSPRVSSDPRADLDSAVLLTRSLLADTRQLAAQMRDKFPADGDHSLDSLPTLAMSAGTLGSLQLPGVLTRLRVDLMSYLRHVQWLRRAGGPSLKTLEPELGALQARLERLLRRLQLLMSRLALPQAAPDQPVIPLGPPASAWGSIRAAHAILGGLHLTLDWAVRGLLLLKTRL
# B1: IL-11: Interleukin 11, pleiotropic cytokine of the IL-6 family, used to stimulate cells (protein)
# chain: T2 sequence (looked up)
# B2: W147A: IL-11 antagonist in which amino acid 147 is mutated from a tryptophan to an alanine (protein, UniProt P20809 22-199, looked up, variant W147A)
# Interleukin-11: PGPPPGPPRVSPDPRAELDSTVLLTRSLLADTRQLAAQLRDKFPADGDHNLDSLPTLAMSAGALGALQLPGVLTRLRADLLSYLRHVQWLRRAGGSSLKTLEPELGTLQARLDRLLRRLQLLMSRLALPQPPPDPPAPPLAPPSSAAGGIRAAHAILGGLHLTLDWAVRGLLLLKTRL
# B3: X203, mouse anti-mouse IL-11 IgG (anti-IL-11 antagonist antibody) (antibody, V domains shown)
# VH: EVQLQQSGPELVKPGASVKIPCKASGYTFTDYNMDWVKQSHGKSLEWIGDINPHNGGPIYNQKFTGKATLTVDKSSSTAYMELRSLTSEDTAVYYCARGELGHWYFDVWGTGTTVTVSS
# VL: DIVLTQSPASLAVSLGQRATISCRASKSVSTSGYSYIHWYQQKPGQPPKLLIYLASNLDSGVPARFSGSGSGTDFTLNIHPVEEEDAATYYCQHSRDLPPTFGGGTKLEIK
# notes: also called Enx203; anti-IL11 (X203)
# Key:
# IL-11Rα = biological target: T1, IL-11Rα; settings: low affinity binding to IL-11Rα alone; cited from earlier work
# [1] = test system: Human hepatic stellate cells; assay: IL-11 stimulation of cells overexpressing wild-type LKB1, western blot; assay type: cell-based; settings: IL11 10 ng/ml, 2 hours
# Protocol: (§1) FIG. 17. Human hepatic stellate cells (17A) and hepatocytes (17B) were infected with AAV8 encoding human LKB1 (multiplicity of infection=20) for 24 hours and then stimulated with IL11 (10 ng/ml) for 2 hours. Cell lysates were immunoblotted for the proteins shown.
# (§2) Human hepatic stellate cells (FIG. 17A) and human hepatocytes (FIG. 17B) were engineered to overexpress the wild-type LKB1 and a double mutant S325A, S428A (DM-LKB1). FIGS. 17A and 17B confirm that stimulation with IL-11 induces phosphorylation at […] in the WT LKB1 cells. As expected, phosphorylation is not observed in the double mutant LKB1 cells.
# human hepatocytes [2] = assay: as above; assay type: cell-based; settings: IL11 10 ng/ml, 2 hours
# Protocol: as §1, §2
# human hepatocytes [3] = assay: IL-11 stimulation in the presence of DMSO or U0126, western blot; assay type: cell-based; settings: IL-11 treatment 24 hours
# Protocol: FIG. 22. Western blot image showing the levels of p-ERK, ERK, p-P90RSK, P90RSK, p-LKB1, LKB1, p-AMPK, AMPK, p-mTOR, mTOR, p-p70S6K, p70S6K, p-S6RP, S6RP in primary human hepatocytes that are unstimulated (BL+DMSO) or stimulated for 24 hours with IL11 in the presence DMSO or U0126 (10 μM).
# (§3) Primary human hepatic stellate cells and human hepatocytes were stimulated for 24 hours with IL-11 in the presence DMSO or U0126. As discussed in Example 4.4, the inventors observed that IL-11 treatment stimulates p-mTOR, p-70S6K and p-S6RP. In line with the inventors' hypothesis, administration of U0126 to IL-11-stimulated cells prevents ERK-mediated inactivation of LKB1/AMPK that stops IL11-induced mTORC1/P70S6K activation (FIG. 21 and FIG. 22, respectively).
# A549 cells = assay: IL-11 stimulation of A549 cells overexpressing human LKB1, western blot; assay type: cell-based; settings: IL11 10 ng/ml; AAV8 human LKB1
# Protocol: FIG. 16. IL-11 stimulates ERK-mediated phosphorylation of LKB1 serine 325(S325) and P90RSK-mediated phosphorylation of LKB1 serine 428 (S428) with subsequent inactivation of AMPK and activation of mTOR, P70RSK and S6RP. (16A) A549 cells were infected with AAV8 encoding human LKB1 (multiplicity of infection=20) for 24 hours and then stimulated with IL11 (10 ng/ml) for the indicated times (15 minutes, 2 hours, 4 hours, 6 hours, or 24 hours). Cell lysates were immunoblotted for the proteins shown. (16B) Schematic of activation of ERK (directly) and P90RSK (indirectly) by IL-11-mediated signalling and downstream effects on hallmarks of ageing. P or p; phosphorylated amino acid.
# To determine the mechanism through which IL-11 stimulates phosphorylation of LKB1, A549 cells were engineered to overexpress human LKB1 (AA8-LKB1 in FIG. 16A) and treated with IL-11.
# [4] = test system: Primary human hepatic stellate cells; assay: IL-11 stimulation in the presence of DMSO or U0126, western blot; assay type: cell-based; settings: IL-11 treatment 24 hours
# Protocol: FIG. 21. Western blot image showing the levels of p-ERK, ERK, p-P90RSK, P90RSK, p-LKB1, LKB1, p-AMPK, AMPK, p-mTOR, mTOR, p-p70S6K, p70S6K, p-S6RP, S6RP, SMA, and GAPDH in primary human hepatic stellate cells that are unstimulated (BL+DMSO) or stimulated for 24 hours with IL11 in the presence DMSO or U0126 (10 μM).
# as §3
# [5] = test system: Primary human cardiac fibroblasts; assay: IL-11 stimulation time course, western blot; assay type: cell-based; settings: IL-11 10 ng/ml, 15 mins, 2, 4, 6 or 24 hours
# Protocol: FIG. 15. Western blot image showing the levels of p-LKB1, LKB1, p-mTOR, mTOR in primary human cardiac fibroblasts that are stimulated with IL11 (10 ng/ml), for 15 minutes, 2 hours, 4 hours, 6 hours, or 24 hours.
# Primary human cardiac fibroblasts were stimulated with IL-11 (10 ng/ml), for 15 mins, 2, 4, 6, or 24 hours and the levels of phosphorylated LKB1 (p-LKB1), LKB1, phosphorylated mTOR (p-mTOR) and mTOR were measured by western blot.
# [6] = test system: Primary human hepatic stellate cells (HSCs); assay: Increasing concentrations of IL-11 or IL-6, western blot p-LKB1/p-AMPK; assay type: cell-based; settings: 24 hours; p-LKB1, p-AMPK
# Protocol: (§4) FIG. 23. Western blot image showing the levels of p-LKB1, LKB1, p-AMPK, AMPK in primary human hepatocytes or primary human hepatic stellate cells that are unstimulated (BL) or stimulated for 24 hours with increasing concentrations (1.25, 2.5, 5, 10 or 20 ng/ml) of IL-11 or IL-6.
# (§5) Primary human hepatic stellate cells (HSCs) and human hepatocytes were stimulated for 24 hours with increasing concentrations (1.25-20 ng/ml) of IL-11 or IL-6. […] The effect of IL-11 on these markers is observable at concentrations as low as 1.25 ng/ml in both HSCs and hepatocytes.
# human hepatocytes [7] = assay: as above; assay type: cell-based; settings: 24 hours; p-LKB1, p-AMPK
# Protocol: as §4, §5
# IL-11 signalling = settings: binds IL-11Rα, engagement of gp130 homodimer fails; cited from earlier work
# [8] = biological target: T2, Mouse IL-11 protein in tissue lysates …; assay: western blot of mouse liver lysates (SDS-PAGE, PVDF), X203 as primary antibody, anti-mouse HRP and ECL detection
# Protocol: Briefly, livers were harvested from mice and homogenized in radioimmunoprecipitation assay (RIPA) lysis and Extraction Buffer (ThermoFisher Scientific) containing protease and phosphatase inhibitors (Roche), followed by centrifugation to clear the lysate. Protein concentrations were determined by Bradford assay (Bio-Rad). Equal amounts of protein lysates were separated by SDS-PAGE, transferred to PVDF membranes, blocked for 1 h with 3% BSA, and incubated overnight with X203 (1:2000) or anti-GAPDH (1:1000, CST). Protein bands were visualized using the ECL detection system (Pierce) with the appropriate secondary antibodies: anti-mouse HRP and anti-rabbit HRP (1:5000, CST). […]
molecule,measurement,setting,value
B1,Kd,IL-11Rα,~22 nM
same,phosphorylation at S428 and S325 in the WT LKB1 cells,[1],induces
same,phosphorylation at S428 and S325 in the WT LKB1 cells,human hepatocytes [2],induces
same,"p-mTOR, p-70S6K and p-S6RP",human hepatocytes [3],stimulates
same,ERK-mediated phosphorylation of LKB1 Serine 325 (S325) and P90RSK-mediated phosphorylation of LKB1 serine 428 (S428),A549 cells,stimulates
same,"p-mTOR, p-70S6K and p-S6RP",[4],stimulates
same,level of phosphorylated LKB1 and phosphorylated mTOR,[5],increases
same,lowest concentration at which the effect on these markers is observable,[6],1.25 ng/mL
same,lowest concentration at which the effect on these markers is observable,human hepatocytes [7],1.25 ng/mL
B2,blockade of IL-11 signalling,IL-11 signalling,efficient blockade
B3,binding result,[8],binds
